We go through four molecules from US20120034212A1 (AstraZeneca / MedImmune, published 2012).

Where two headings read alike, the source gives them in different places.

A word on the EC50: it is the concentration giving half of the maximal effect. Usually Kd stands for the free concentration of one partner at which half of the binding sites on the other are occupied at equilibrium, for simple one-to-one binding.

Assay [1] concerns the target T1, endogenous human IL-6 produced by human synovial fibroblasts (human, UniProt P05231 30-212). Put plainly: cell-based or functional assay.
For assay [2], the target named is T1, endogenous human IL-6 produced by human …. Put plainly: cell-based or functional assay. The source holds these as a separate data set.
In assay [3] the target is T2, recombinant human IL-6 (human, UniProt P05231 30-212). Put plainly: cell-based or functional assay.
Assay [4] deals with T2, recombinant human IL-6. Put plainly: ELISA, E. coli expressed rhuIL-6 as capture reagent.
Description: ELISA assays were performed according to standard protocols.
The target of another assay is T3, cynomolgus FcRn (cynomolgus, UniProt Q8SPV9 24-297; Q8SPW0 21-119, limits assumed).
T3 construct: also called cynoFcRn; cyno FcRn
Put plainly: BIAcore, pH 6. In general terms: Surface plasmon resonance follows binding to a sensor surface in real time, without labels.

The target in a further assay is T4, human FcRn (human, UniProt P55899 24-297; P61769 21-119, limits assumed).
T4 construct: also called huFcRn
Put plainly: BIAcore, pH 6.

In assay [5] the target is T2, recombinant human IL-6. Put plainly: ELISA, E. coli derived recombinant human IL-6 as capture reagent; drawn table 'Avg EC50 (pM)', n = 4. Background: ELISA stands for enzyme-linked immunosorbent assay.
Assay [6] concerns the target T2, recombinant human IL-6. Put plainly: cell-based or functional assay. This is another data set of the same source.
Assay [7] deals with endogenous human IL-6 produced by human synovial fibroblasts (human) (UniProt P05231). The assay is described as follows: cell-based or functional assay.
The target of assay [8] is T2, recombinant human IL-6. Put plainly: BIAcore; Example 1 summarises WO 2008/065378; BIAcore; bound at the assay's detection level.
Assay [9] deals with T2, recombinant human IL-6. The assay is described as follows: affinity estimated from the TF-1 Cell Proliferation Assay (cell-based, not a direct binding assay); Example 1 summarises WO 2008/065378; estimated from the TF-1 Cell Proliferation Assay, not BIAcore.
Assay [10] has as its target endogenous human IL-6 produced by human synovial fibroblasts (human) (UniProt P05231).

T3 sequence (Q8SPV9 24-297 limits assumed, chain 1 of 2): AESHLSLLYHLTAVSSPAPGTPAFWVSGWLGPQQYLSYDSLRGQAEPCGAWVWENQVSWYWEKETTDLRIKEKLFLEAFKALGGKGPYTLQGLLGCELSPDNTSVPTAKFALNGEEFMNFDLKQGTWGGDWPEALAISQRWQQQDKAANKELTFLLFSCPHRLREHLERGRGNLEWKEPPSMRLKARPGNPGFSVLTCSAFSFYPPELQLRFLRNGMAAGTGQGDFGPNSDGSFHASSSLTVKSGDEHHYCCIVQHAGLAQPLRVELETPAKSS
T3 sequence (Q8SPW0 21-119 limits assumed, chain 2 of 2): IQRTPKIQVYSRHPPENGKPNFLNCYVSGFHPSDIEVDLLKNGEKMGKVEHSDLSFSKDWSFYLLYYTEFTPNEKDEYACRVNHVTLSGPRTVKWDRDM
T4 sequence (P55899 24-297 limits assumed, chain 1 of 2): as the sequence (Q8SPV9 24-297 limits assumed, chain 1 of 2) above, with D39N, Q44E, S99G, G189S, N190S, M217L, T269S counted along it
T4 sequence (P61769 21-119 limits assumed, chain 2 of 2): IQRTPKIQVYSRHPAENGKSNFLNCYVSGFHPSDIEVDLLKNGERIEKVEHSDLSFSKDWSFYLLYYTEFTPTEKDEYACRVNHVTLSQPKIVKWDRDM
Sequence of endogenous human IL-6 produced by human synovial fibroblasts (human) (P05231 30-212): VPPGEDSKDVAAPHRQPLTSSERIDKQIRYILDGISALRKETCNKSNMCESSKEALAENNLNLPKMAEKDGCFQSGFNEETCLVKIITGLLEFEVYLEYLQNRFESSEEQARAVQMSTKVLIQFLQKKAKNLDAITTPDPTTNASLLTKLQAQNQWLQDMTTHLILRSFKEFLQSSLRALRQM

B1: Antibody 18E (antibody, human IgG1, kappa)
heavy: EVQLVESGGGLVQPGGSLRLSCAASGFTISSNYMIWVRQAPGKGLEWVSDLYYYAGDTYYADSVKGRFTMSRDISKNTVYLQMNSLRAEDTAVYYCARWADDHPPWIDLWGRGTLVTVSSASTKGPSVFPLAPSSKSTSGGTAALGCLVKDYFPEPVTVSWNSGALTSGVHTFPAVLQSSGLYSLSSVVTVPSSSLGTQTYICNVNHKPSNTKVDKRVEPKSCDKTHTCPPCPAPELLGGPSVFLFPPKPKDTLYITREPEVTCVVVDVSHEDPEVKFNWYVDGVEVHNAKTKPREEQYNSTYRVVSVLTVLHQDWLNGKEYKCKVSNKALPAPIEKTISKAKGQPREPQVYTLPPSREEMTKNQVSLTCLVKGFYPSDIAVEWESNGQPENNYKTTPPVLDSDGSFFLYSKLTVDKSRWQQGNVFSCSVMHEALHNHYTQKSLSLSPGK
light: DIQMTQSPSTLSASVGDRVTITCRASQGISSWLAWYQQKPGKAPKVLIYKASTLESGVPSRFSGSGSGTEFTLTISSLQPDDFATYYCQQSWLGGSFGQGTKLEIKRTVAAPSVFIFPPSDEQLKSGTASVVCLLNNFYPREAKVQWKVDNALQSGNSQESVTEQDSKDSTYSLSSTLTLSKADYEKHKVYACEVTHQGLSSPVTKSFNRGEC
notes: Antibody 18 with the M252Y, S254T and T256E substitutions (EU index) in the IgG1 Fc region; Expressed in CHO-K1 cells; also called Ab 18E
With B1, the “IC50, inhibition of endogenous IL-6 induced VEGF release from human synovial fibroblasts” value in assay [1] and in [2] was 0.0012 nM in each case. Also, in the assay with recombinant human IL-6 [3], the “IC50, inhibition of IL-6 induced TF-1 cell proliferation” value is 0.0052 nM. The EC50 with recombinant human IL-6 [4] turned out to be 0.0065 nM. The Kd with cynomolgus FcRn was found to be 365 nM; with human FcRn, 226 nM.

B2: IL-6 antibody B (antibody, V domains shown)
VH: QSVEESGGRLVTPGTPLTLTCTVSGFSLSAYDMYWVRQAPGKGLEWIGITYGSGKTYYARWAKGRFTISKTSTTVALKITSPTTEDTATYFCARDSGYPGGSSAYNLWGQGTLVTVSS
VL: AAVLTQTPSAVSAAVGGTVTISCQSSQSVTVNNDLAWYQQRPGQPPKLLIYRASNLASRVPSRFSGSGSGTQFTLTISGVQCDDAATYYCLGGYDDDASNAFGGGTEVVVKG
Take B2: the EC50 in the assay with recombinant human IL-6 [5] amounted to 0.0141 nM. In addition, the “IC50, inhibition of endogenous IL-6 induced VEGF release from human synovial fibroblasts” value in assay [1] worked out at 2.2 nM. In addition, in the assay with recombinant human IL-6 [6], the “IC50, inhibition of IL-6 induced TF-1 cell proliferation” value amounted to 0.0781 nM.

B3: IL-6 antibody A (antibody, V domains shown)
VH: QEQLVESGGGLVQPEGSLTLTCIASGWSFSSSHYMCWVRQAPGKGLEWIGCIYTGSGMTYYASWAKGRFTISKTSSTTVTLQMTSLTAADTATYFCARKIGGTDDYGDSLYFSLWGQGTLVTVSS
VL: AQVLTQTPSPVSAAVGGTVTINCQASQSVYNNSKLAWYQQKPGQPPKLLIYKASSLASGVSSRFKGSGSGTQFTLTISGVQCDDAATYYCQHEFSCSSADCVAFGGGTEVVVKG
For B3, the EC50 with recombinant human IL-6 [5] was 0.0078 nM. The “IC50, inhibition of endogenous IL-6 induced VEGF release from human synovial fibroblasts” value in assay [1] stood at 2.8 nM. In addition, in the assay with recombinant human IL-6 [6], the “IC50, inhibition of IL-6 induced TF-1 cell proliferation” value stood at 0.0059 nM.

B4: Antibody 18 (antibody, V domains shown)
VH: EVQLVESGGGLVQPGGSLRLSCAASGFTISSNYMIWVRQAPGKGLEWVSDLYYYAGDTYYADSVKGRFTMSRDISKNTVYLQMNSLRAEDTAVYYCARWADDHPPWIDLWGRGTLVTVSS
VL: DIQMTQSPSTLSASVGDRVTITCRASQGISSWLAWYQQKPGKAPKVLIYKASTLESGVPSRFSGSGSGTEFTLTISSLQPDDFATYYCQQSWLGGSFGQGTKLEIK
notes: Human anti-IL-6 IgG1 with a wild type Fc region; It is the parent of Antibody 18E; also called Ab 18
Take B4: the “IC50, inhibition of IL-6 induced TF-1 cell proliferation” value with recombinant human IL-6 [3] was found to be 0.0045 nM. Besides, the IC50, inhibition of endogenous IL-6 induced VEGF release from human synovial fibroblasts is 0.0013 nM in assay [7] and 1.3 nM in assay [10]. Besides, the Kd was less than 0.01 nM in the assay with recombinant human IL-6 [8], 0.0004 nM in the assay with recombinant human IL-6 [9], 1160 nM with cynomolgus FcRn and 2610 nM with human FcRn. In addition, the EC50 in the assay with recombinant human IL-6 [4] worked out at 0.0061 nM.
